# Results as given in US20080032921A1.
# Assays:
# [1] = target: HLA-DR DRB1*0401 (human); experiment: competition with 125I-labeled reference peptide, purified HLA
# [2] = target: HLA-DR DRB1*1302 (human); experiment: as above
# [3] = target: HLA-DR DRB1*0101 (human); experiment: as above
# [4] = target: HLA-DR DRB1*0405 (human); experiment: as above
# [5] = target: HLA-DR DRB1*0404 (human); experiment: as above
# [6] = target: HLA-DR DRB1*0301 (human); experiment: as above
# [7] = target: purified HLA-DR DRB1*0101 (human); experiment: competition with 125I-labelled reference peptide, purified HLA
# [8] = target: purified HLA-DR DRB1*0301 (human); experiment: as above
# [9] = target: purified HLA-DR DRB1*1302 (human); experiment: as above
# [10] = target: purified HLA-DR DRB1*0401 (human); experiment: as above
# [11] = target: HLA-DR DRB4*0101 (human); experiment: competition vs 125I-labeled peptide, purified HLA
# [12] = target: HLA-DR DRB1*0401 (human); experiment: competition vs 125I-labeled peptide, purified HLA
# [13] = target: HLA-DR DRB1*1302 (human); experiment: competition vs 125I-labeled peptide, purified HLA
# [14] = target: HLA-DR DRB1*0101 (human); experiment: competition vs 125I-labeled peptide, purified HLA
# [15] = target: HLA-DR DRB1*1501 (human); experiment: competition vs 125I-labeled peptide, purified HLA
# [16] = target: HLA-DR DRB4*0101 (human); experiment: competition with 125I-labelled reference peptide on purified HLA-DR
# [17] = target: HLA-DR DRB1*0401 (human); experiment: as above
# [18] = target: HLA-DR DRB1*1302 (human); experiment: as above
# [19] = target: HLA-DR DRB1*0101 (human); experiment: as above
# [20] = target: HLA-DR DRB1*1501 (human); experiment: as above
# [21] = target: purified HLA-DR molecule DRB1*1302 (human); experiment: competition with 125I-labelled peptide for purified HLA
# [22] = target: purified HLA-DR molecule DRB1*0301 (human); experiment: as above
# [23] = target: purified HLA-DR molecule DRB1*0404 (human); experiment: as above
# [24] = target: purified HLA-DR molecule DRB1*0401 (human); experiment: as above
# [25] = target: purified HLA-DR molecule DRB1*0101 (human); experiment: as above
# [26] = target: purified HLA-DR molecule DRB1*0405 (human); experiment: as above
# [27] = target: HLA-DR DRB1*0301 (human); experiment: competition vs 125I-labeled peptide, purified HLA
# [28] = target: purified HLA-DR DRB1*0405 (human); experiment: competition with 125I-labelled reference peptide, purified HLA
# [29] = target: purified HLA-DR DRB1*0404 (human); experiment: as above
binder,measurement,setting,value
FNPMIVELAEKTMKE (modifications not checked) [Flu.PA.12],IC50,[1],29 nM
same,IC50,[2],1250 nM
same,IC50,[3],48 nM
same,IC50,[4],1240 nM
same,IC50,[5],610 nM
same,IC50,[6],744 nM
FLILGKEDRRYGPAL (modifications not checked) [Flu.PB2.697],IC50,[7],8390 nM
same,IC50,[8],565 nM
same,IC50,[9],118 nM
same,IC50,[10],1740 nM
ILSIYSTVASSLALAI (modifications not checked) [Flu.HA.532],IC50,[11],824 nM
same,IC50,[12],91 nM
same,IC50,[13],7.6 nM
same,IC50,[14],11 nM
same,IC50,[15],20 nM
LKQYDSDEPELRSLS (modifications not checked) [Flu.PA.393],IC50,[1],7260 nM
same,IC50,[2],> 10000 nM
same,IC50,[3],17700 nM
same,IC50,[4],> 10000 nM
same,IC50,[5],5800 nM
same,IC50,[6],88 nM
NLEYQIGYICSGVFG (modifications not checked) [Flu.NA.289 peptide …],IC50,[16],354 nM
same,IC50,[17],975 nM
same,IC50,[18],41 nM
same,IC50,[19],1130 nM
same,IC50,[20],13 nM
KYPITADKRIMEMIP (modifications not checked) [… (Flu.PB2.57)],IC50,[21],68 nM
same,IC50,[22],48 nM
same,IC50,[23],2290 nM
same,IC50,[24],9390 nM
EALMEWLKTRPILSP (modifications not checked) [Flu.M1.43],IC50,[11],5510 nM
same,IC50,[12],891 nM
same,IC50,[13],380 nM
same,IC50,[14],9.5 nM
same,IC50,[15],18 nM
VVWLIKKNSTYPTIKR (modifications not checked) [Flu.HA.163],IC50,[11],1660 nM
same,IC50,[12],289 nM
same,IC50,[13],14 nM
same,IC50,[14],464 nM
same,IC50,[15],99 nM
PVHFRNQVKIRRRVD (modifications not checked) [… (Flu.PB2.135)],IC50,[21],359 nM
same,IC50,[25],2970 nM
same,IC50,[22],458 nM
same,IC50,[26],6040 nM
same,IC50,[23],5980 nM
same,IC50,[24],1300 nM
IYQILSIYSTVASSLA (modifications not checked) [Flu.HA.529],IC50,[11],18 nM
same,IC50,[12],89 nM
same,IC50,[13],13 nM
same,IC50,[14],55 nM
same,IC50,[15],4.7 nM
CPKYVKSNRLVLATGL (modifications not checked) [Flu.HA.318],IC50,[11],287 nM
same,IC50,[12],868 nM
same,IC50,[13],48 nM
same,IC50,[14],2760 nM
same,IC50,[15],230 nM
same,IC50,[27],2920 nM
LRNLMSQSRTREILT (modifications not checked) [LRNLMS1SRTREILT (Flu.PB2.10)],IC50,[21],5.4 nM
same,IC50,[25],613 nM
same,IC50,[22],978 nM
same,IC50,[26],9690 nM
same,IC50,[23],170 nM
same,IC50,[24],4970 nM
RNYFTAEVSHCRATE (modifications not checked) [Flu.PA.446],IC50,[1],45 nM
same,IC50,[2],> 10000 nM
same,IC50,[3],627 nM
same,IC50,[4],5720 nM
same,IC50,[5],7600 nM
same,IC50,[6],883 nM
QLLLEVEQEIRTFSF (modifications not checked) [Flu.NS2.180],IC50,[1],13900 nM
same,IC50,[2],13200 nM
same,IC50,[3],11900 nM
same,IC50,[4],5140 nM
same,IC50,[5],1600 nM
same,IC50,[6],792 nM
RGILEDEQMYQKCCN (modifications not checked) [… (Flu.PB1.683)],IC50,[21],18000 nM
same,IC50,[25],199 nM
same,IC50,[22],43 nM
same,IC50,[26],3280 nM
same,IC50,[23],10500 nM
same,IC50,[24],5740 nM
AMVFSQEDCMIKAVR (modifications not checked) [Flu.PB2.404],IC50,[7],11000 nM
same,IC50,[8],718 nM
same,IC50,[28],6780 nM
same,IC50,[9],9200 nM
same,IC50,[29],336 nM
same,IC50,[10],3280 nM
